Data as given in the supplement of paper PMC9876800.

Test system: peptide library, one residue held at a place counted from the S/T acceptor
Test: relative phosphorylation of the sub-library (ratio to the mean residue at this position); higher = residue favoured
Conditions: human
Method in brief: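 Relative sub-library phosphorylation, a ratio to the mean residue at that position, was obtained by phosphorimaging and densitometry of spots on streptavidin membranes. Before capture, purified recombinant kinases were incubated for 90 min under kinase-specific conditions with 50 μM biotinylated degenerate peptide sub-libraries and 50 μM ATP spiked with γ-32P-ATP. Each sub-library fixed one residue at one position around a central Ser/Thr.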

Sequence of RIPK2, construct: aa2-317 (O43353 2-317, looked up): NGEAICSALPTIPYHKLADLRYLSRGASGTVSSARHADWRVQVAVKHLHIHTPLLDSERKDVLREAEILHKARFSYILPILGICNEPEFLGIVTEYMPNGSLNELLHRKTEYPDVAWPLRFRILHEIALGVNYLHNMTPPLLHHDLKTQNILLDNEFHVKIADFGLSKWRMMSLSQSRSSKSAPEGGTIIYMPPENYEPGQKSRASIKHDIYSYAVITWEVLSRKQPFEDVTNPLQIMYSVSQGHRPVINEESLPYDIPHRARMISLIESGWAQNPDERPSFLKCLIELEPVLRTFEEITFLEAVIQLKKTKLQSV
Sequence of HIPK3, construct: aa161-562 (Q9H422 161-562, looked up): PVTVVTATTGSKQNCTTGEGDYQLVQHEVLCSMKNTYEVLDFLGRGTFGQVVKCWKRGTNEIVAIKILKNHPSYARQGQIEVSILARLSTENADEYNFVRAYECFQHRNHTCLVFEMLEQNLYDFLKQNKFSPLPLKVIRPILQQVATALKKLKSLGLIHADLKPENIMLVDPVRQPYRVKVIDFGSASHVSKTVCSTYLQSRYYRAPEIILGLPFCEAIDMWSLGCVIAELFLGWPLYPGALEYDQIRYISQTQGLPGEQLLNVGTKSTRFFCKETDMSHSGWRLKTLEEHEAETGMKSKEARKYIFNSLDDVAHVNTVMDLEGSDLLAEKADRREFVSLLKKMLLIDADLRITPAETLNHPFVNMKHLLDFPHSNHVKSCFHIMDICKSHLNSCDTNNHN

HIPK3, construct: aa161-562 (from UniProt Q9H422)
relative phosphorylation
Conditions | at +1 | at +2 | at +3 | at +4 | at -1 | at -2 | at -3 | at -4 | at -5
A fixed | 0.905 | 1.05 | 1.03 | 0.883 | 1.43 | 2.27 | 1.26 | 1.07 | 0.866
D fixed | 0.116 | 0.665 | 0.422 | 0.718 | 0.435 | 0.171 | 0.37 | 0.534 | 0.617
E fixed | 0.135 | 0.371 | 0.338 | 0.569 | 0.46 | 0.158 | 0.375 | 0.63 | 0.608
F fixed | 0.541 | 1.27 | 0.965 | 1.07 | 0.843 | 0.617 | 0.713 | 1.33 | 1.32
G fixed | 0.8 | 1.07 | 0.954 | 1.02 | 1.07 | 0.734 | 1.06 | 0.962 | 0.863
H fixed | 0.422 | 1.3 | 0.962 | 1.05 | 0.765 | 0.465 | 0.687 | 0.859 | 1.03
I fixed | 0.656 | 0.842 | 1.26 | 1.17 | 1.07 | 1.24 | 0.682 | 1.05 | 0.913
K fixed | 0.324 | 1.33 | 0.598 | 1.1 | 1.12 | 0.745 | 0.858 | 1.01 | 1.1
L fixed | 0.553 | 1.02 | 1.05 | 0.844 | 0.932 | 0.757 | 0.586 | 0.842 | 1.15
M fixed | 0.706 | 1.34 | 1.2 | 1.05 | 1.17 | 0.835 | 0.752 | 1.09 | 0.951
N fixed | 0.21 | 0.801 | 0.714 | 0.894 | 0.585 | 0.528 | 0.481 | 0.545 | 0.771
P fixed | 8.32 | 0.967 | 2.43 | 1.1 | 1.52 | 2.41 | 0.72 | 1.04 | 1.17
Q fixed | 0.273 | 0.703 | 0.762 | 1.01 | 0.907 | 0.626 | 0.679 | 0.799 | 0.984
R fixed | 1.5 | 1.52 | 1.12 | 1.36 | 2.1 | 3.19 | 6.13 | 2.47 | 1.8
V fixed | 0.649 | 0.847 | 1.22 | 0.951 | 0.929 | 1.2 | 0.614 | 0.918 | 0.812
W fixed | 0.535 | 1 | 0.97 | 1.16 | 0.76 | 0.568 | 0.553 | 0.896 | 0.789
Y fixed | 0.351 | 0.895 | 0.998 | 1.05 | 0.913 | 0.492 | 0.482 | 0.956 | 1.25
pThr fixed | 0.236 | 0.362 | 0.387 | 0.458 | 0.427 | 0.737 | 0.512 | 0.745 | 0.925
pTyr fixed | 0.283 | 0.331 | 0.529 | 0.601 | 0.585 | 0.296 | 0.624 | 0.7 | 0.939

RIPK2, construct: aa2-317 (from UniProt O43353)
relative phosphorylation
Conditions | at +1 | at +2 | at +3 | at +4 | at -1 | at -2 | at -3 | at -4 | at -5
A fixed | 0.347 | 0.349 | 0.463 | 0.669 | 0.597 | 0.592 | 0.889 | 0.727 | 1.01
D fixed | 0.267 | 0.348 | 0.308 | 0.731 | 1.09 | 0.599 | 0.412 | 0.738 | 0.674
E fixed | 0.265 | 0.481 | 0.291 | 0.563 | 0.726 | 0.431 | 0.409 | 0.655 | 0.669
F fixed | 2.32 | 1.73 | 3.03 | 1.2 | 1.31 | 1.12 | 1.17 | 1.15 | 1.44
G fixed | 0.316 | 0.414 | 0.503 | 0.789 | 0.615 | 0.882 | 0.712 | 0.728 | 0.893
H fixed | 0.643 | 1.41 | 0.734 | 1.11 | 1.29 | 1.54 | 0.905 | 1.02 | 0.985
I fixed | 2.75 | 1.96 | 1.31 | 0.975 | 1.11 | 0.86 | 1.27 | 1.12 | 1.13
K fixed | 0.367 | 1.29 | 0.628 | 1.18 | 0.766 | 0.734 | 0.983 | 0.739 | 0.874
L fixed | 1.41 | 1.17 | 1.12 | 0.98 | 1.53 | 1.15 | 1.6 | 1.1 | 1.15
M fixed | 1.4 | 1.12 | 1.41 | 0.967 | 1.74 | 1.18 | 1.2 | 1.23 | 1.17
N fixed | 0.369 | 0.622 | 0.498 | 0.86 | 0.932 | 0.869 | 0.626 | 0.949 | 0.73
P fixed | 0.166 | 0.299 | 0.277 | 0.879 | 0.394 | 0.365 | 0.537 | 0.624 | 0.781
Q fixed | 0.496 | 0.788 | 0.425 | 0.847 | 0.784 | 0.82 | 0.631 | 0.679 | 0.727
R fixed | 0.395 | 1.22 | 0.962 | 1.43 | 0.8 | 1.72 | 2.02 | 0.923 | 1.01
V fixed | 1.58 | 1.14 | 0.845 | 0.638 | 0.75 | 0.64 | 0.797 | 1.02 | 0.917
W fixed | 2.7 | 1.01 | 2.38 | 1.83 | 1.32 | 2.07 | 1.78 | 2.25 | 1.42
Y fixed | 1.22 | 1.65 | 1.81 | 1.34 | 1.24 | 1.42 | 1.05 | 1.35 | 1.42
pThr fixed | 0.578 | 0.83 | 0.416 | 0.82 | 0.77 | 0.688 | 0.707 | 1 | 0.808
pTyr fixed | 0.309 | 0.39 | 0.353 | 0.5 | 1.35 | 0.425 | 0.568 | 0.617 | 0.54

EIF2AK2, construct: aa252-end (from UniProt P19525)
relative phosphorylation
Conditions | at +1 | at +2 | at +3 | at +4 | at -1 | at -2 | at -3 | at -4 | at -5
A fixed | 0.837 | 0.775 | 0.867 | 0.96 | 0.739 | 1.04 | 0.961 | 1.13 | 1.13
D fixed | 0.526 | 0.705 | 0.665 | 0.818 | 0.726 | 0.939 | 1.13 | 1.05 | 0.979
E fixed | 0.509 | 0.688 | 0.599 | 0.844 | 0.64 | 0.912 | 1.18 | 0.954 | 0.945
F fixed | 0.695 | 0.616 | 1.02 | 0.701 | 0.681 | 0.989 | 0.774 | 1.06 | 0.853
G fixed | 1.12 | 1.55 | 1.46 | 1.23 | 0.724 | 0.999 | 1.51 | 1.13 | 1.21
H fixed | 0.762 | 1.2 | 1.16 | 1.24 | 1.21 | 1.14 | 0.95 | 1.02 | 1.07
I fixed | 1.01 | 0.648 | 0.9 | 1.04 | 1.16 | 0.793 | 0.89 | 0.805 | 0.995
K fixed | 1.93 | 1.5 | 1.76 | 1.36 | 1.93 | 1.03 | 1.11 | 1.15 | 1.15
L fixed | 1.01 | 0.541 | 0.896 | 0.73 | 0.915 | 1.32 | 0.779 | 0.815 | 0.767
M fixed | 1.25 | 0.643 | 0.779 | 0.935 | 1.03 | 1.01 | 0.961 | 0.868 | 0.884
N fixed | 1.04 | 1.78 | 0.876 | 0.972 | 1.18 | 1.2 | 0.99 | 0.937 | 1
P fixed | 0.4 | 0.644 | 0.966 | 0.815 | 0.648 | 0.963 | 0.969 | 0.954 | 0.93
Q fixed | 1.22 | 0.845 | 0.925 | 0.811 | 0.95 | 1.02 | 0.855 | 0.92 | 0.855
R fixed | 2.57 | 2.68 | 1.7 | 1.75 | 1.97 | 1.09 | 1.5 | 1.21 | 1.41
V fixed | 0.897 | 0.708 | 0.798 | 0.812 | 1.07 | 0.863 | 0.819 | 0.875 | 0.824
W fixed | 0.637 | 0.715 | 0.863 | 1.06 | 0.64 | 0.87 | 0.804 | 1.24 | 0.947
Y fixed | 0.585 | 0.757 | 0.768 | 0.927 | 0.771 | 0.818 | 0.821 | 0.878 | 1.05
pThr fixed | 0.58 | 0.605 | 0.729 | 0.854 | 0.677 | 0.853 | 1.04 | 0.992 | 0.947
pTyr fixed | 0.489 | 0.897 | 0.717 | 0.853 | 0.629 | 0.933 | 0.955 | 0.735 | 0.968
